Test results taken from PMC10397247.
Blank lines part the entries; values can stand above or below the binder they belong to.

What was measured:
4H3172-bN = target: T1, 4H3172-bN; assay: two-hybrid library CCNG1;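 further: natural log of median RNA to DNA barcode read ratio; higher means stronger binding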
T1 chain: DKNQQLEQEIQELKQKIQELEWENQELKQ

4H3638-bN = target: T2, 4H3638-bN; assay: two-hybrid library CCNG1;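 further: natural log of median RNA to DNA barcode read ratio; higher means stronger binding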
T2 chain: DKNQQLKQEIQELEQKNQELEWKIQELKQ

4H3277-bN = target: T3, 4H3277-bN; assay: two-hybrid library CCNG1;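 further: natural log of median RNA to DNA barcode read ratio; higher means stronger binding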
T3 chain: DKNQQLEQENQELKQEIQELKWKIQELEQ

4H3175-bN = target: T4, 4H3175-bN; assay: two-hybrid library CCNG1;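 further: natural log of median RNA to DNA barcode read ratio; higher means stronger binding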
T4 chain: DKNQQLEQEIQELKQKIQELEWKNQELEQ

4H1985-bN = target: T5, 4H1985-bN; assay: two-hybrid library CCNG1
T5 chain: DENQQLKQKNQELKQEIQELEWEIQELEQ

4H584-bN = target: T6, 4H584-bN; assay: two-hybrid library CCNG1
T6 chain: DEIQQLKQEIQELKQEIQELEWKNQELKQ

4H3497-bN = target: T7, 4H3497-bN; assay: two-hybrid library CCNG1
T7 chain: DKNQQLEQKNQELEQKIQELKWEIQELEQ

4H626-bN = target: T8, 4H626-bN; assay: two-hybrid library CCNG1
T8 chain: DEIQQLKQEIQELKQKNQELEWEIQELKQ

4H3298-bN = target: T9, 4H3298-bN; assay: two-hybrid library CCNG1
T9 chain: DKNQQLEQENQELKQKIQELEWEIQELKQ

4H591-bN = target: T10, 4H591-bN; assay: two-hybrid library CCNG1
T10 chain: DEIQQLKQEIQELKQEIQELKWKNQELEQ

4H3817-bN = target: T11, 4H3817-bN; assay: two-hybrid library CCNG1
T11 chain: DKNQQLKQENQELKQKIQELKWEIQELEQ

4H3613-bN = target: T12, 4H3613-bN; assay: two-hybrid library CCNG1
T12 chain: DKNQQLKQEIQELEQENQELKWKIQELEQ

4H3974-bN = target: T13, 4H3974-bN; assay: two-hybrid library CCNG1
T13 chain: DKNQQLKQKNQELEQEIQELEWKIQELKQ

4H850-bN = target: T14, 4H850-bN; assay: two-hybrid library CCNG1
T14 chain: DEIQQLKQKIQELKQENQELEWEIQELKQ

4H3162-bN = target: T15, 4H3162-bN; assay: two-hybrid library CCNG1
T15 chain: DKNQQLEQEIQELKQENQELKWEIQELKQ

4H619-bN = target: T16, 4H619-bN; assay: two-hybrid library CCNG1
T16 chain: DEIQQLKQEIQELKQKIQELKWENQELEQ

4H3858-bN = target: T17, 4H3858-bN; assay: two-hybrid library CCNG1
T17 chain: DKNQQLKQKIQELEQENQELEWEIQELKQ

4H3631-bN = target: T18, 4H3631-bN; assay: two-hybrid library CCNG1
T18 chain: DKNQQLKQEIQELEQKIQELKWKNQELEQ

4H3129-bN = target: T19, 4H3129-bN; assay: two-hybrid library CCNG1
T19 chain: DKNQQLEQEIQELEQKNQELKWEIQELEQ

4H3628-bN = target: T20, 4H3628-bN; assay: two-hybrid library CCNG1
T20 chain: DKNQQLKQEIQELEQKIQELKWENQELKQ

4H906-bN = target: T21, 4H906-bN; assay: two-hybrid library CCNG1
T21 chain: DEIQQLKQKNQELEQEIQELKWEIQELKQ

4H3462-bN = target: T22, 4H3462-bN; assay: two-hybrid library CCNG1
T22 chain: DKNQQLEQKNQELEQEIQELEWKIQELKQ

4H3414-bN = target: T23, 4H3414-bN; assay: two-hybrid library CCNG1
T23 chain: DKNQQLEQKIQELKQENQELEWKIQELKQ

4H3926-bN = target: T24, 4H3926-bN; assay: two-hybrid library CCNG1
T24 chain: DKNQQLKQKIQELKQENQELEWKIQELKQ

4H570-bN = target: T25, 4H570-bN; assay: two-hybrid library CCNG1
T25 chain: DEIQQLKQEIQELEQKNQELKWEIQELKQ

4H4038-bA = target: T26, 4H4038-bA; assay: two-hybrid library CCNG1
T26 chain: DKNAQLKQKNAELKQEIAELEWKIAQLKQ

O8-bN = target: T27, O8-bN; assay: two-hybrid library CCNG1
T27 chain: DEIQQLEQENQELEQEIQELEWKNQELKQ

4H717-bH = target: T28, 4H717-bH; assay: two-hybrid library CCNG1
T28 chain: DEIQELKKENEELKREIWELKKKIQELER

4H2697-bN = target: T29, 4H2697-bN; assay: two-hybrid library CCNG1
T29 chain: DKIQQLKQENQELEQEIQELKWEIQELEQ

4H953-bA = target: T30, 4H953-bA; assay: two-hybrid library CCNG1
T30 chain: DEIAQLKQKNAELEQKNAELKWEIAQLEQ

4H1899-bN = target: T31, 4H1899-bN; assay: two-hybrid library CCNG1
T31 chain: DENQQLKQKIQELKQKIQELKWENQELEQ

4H457-bH = target: T32, 4H457-bH; assay: two-hybrid library CCNG1
T32 chain: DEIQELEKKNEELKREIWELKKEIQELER

4H4073-bH = target: T33, 4H4073-bH; assay: two-hybrid library CCNG1
T33 chain: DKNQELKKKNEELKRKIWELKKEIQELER

4H780-bH = target: T34, 4H780-bH; assay: two-hybrid library CCNG1
T34 chain: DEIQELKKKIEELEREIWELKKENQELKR

4H855-bH = target: T35, 4H855-bH; assay: two-hybrid library CCNG1
T35 chain: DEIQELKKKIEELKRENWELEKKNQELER

4H754-bH = target: T36, 4H754-bH; assay: two-hybrid library CCNG1
T36 chain: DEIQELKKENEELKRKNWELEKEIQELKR

4H3427-bH = target: T37, 4H3427-bH; assay: two-hybrid library CCNG1
T37 chain: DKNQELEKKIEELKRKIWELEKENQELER

4H346-bH = target: T38, 4H346-bH; assay: two-hybrid library CCNG1
T38 chain: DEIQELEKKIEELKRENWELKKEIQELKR

4H683-bH = target: T39, 4H683-bH; assay: two-hybrid library CCNG1
T39 chain: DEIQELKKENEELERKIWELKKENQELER

4H3926-bH = target: T40, 4H3926-bH; assay: two-hybrid library CCNG1
T40 chain: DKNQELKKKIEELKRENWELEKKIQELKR

4H3112-bH = target: T41, 4H3112-bH; assay: two-hybrid library CCNG1
T41 chain: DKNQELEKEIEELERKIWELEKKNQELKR

4H2702-bH = target: T42, 4H2702-bH; assay: two-hybrid library CCNG1
T42 chain: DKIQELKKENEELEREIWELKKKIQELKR

4H968-bH = target: T43, 4H968-bH; assay: two-hybrid library CCNG1
T43 chain: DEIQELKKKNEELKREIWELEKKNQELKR

4H3010-bH = target: T44, 4H3010-bH; assay: two-hybrid library CCNG1
T44 chain: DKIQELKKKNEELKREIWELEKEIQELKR

4H2627-bH = target: T45, 4H2627-bH; assay: two-hybrid library CCNG1
T45 chain: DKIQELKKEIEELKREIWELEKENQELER

4H797-bH = target: T46, 4H797-bH; assay: two-hybrid library CCNG1
T46 chain: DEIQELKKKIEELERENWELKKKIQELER

4H2673-bH = target: T47, 4H2673-bH; assay: two-hybrid library CCNG1
T47 chain: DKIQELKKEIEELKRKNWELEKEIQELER

4H953-bH = target: T48, 4H953-bH; assay: two-hybrid library CCNG1
T48 chain: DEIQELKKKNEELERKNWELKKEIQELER

4H918-bH = target: T49, 4H918-bH; assay: two-hybrid library CCNG1
T49 chain: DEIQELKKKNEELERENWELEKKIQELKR

4H575-bH = target: T50, 4H575-bH; assay: two-hybrid library CCNG1
T50 chain: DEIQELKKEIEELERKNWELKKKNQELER

4H3961-bA = target: T51, 4H3961-bA; assay: two-hybrid library CCNG1
T51 chain: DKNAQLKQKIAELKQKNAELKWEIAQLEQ

4H470-bA = target: T52, 4H470-bA; assay: two-hybrid library CCNG1
T52 chain: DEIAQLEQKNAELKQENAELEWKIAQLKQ

4H3907-bA = target: T53, 4H3907-bA; assay: two-hybrid library CCNG1
T53 chain: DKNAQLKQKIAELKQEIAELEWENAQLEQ

4H607-bA = target: T54, 4H607-bA; assay: two-hybrid library CCNG1
T54 chain: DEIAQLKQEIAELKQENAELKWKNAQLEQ

Q8-AA = target: T55, Q8-AA; assay: two-hybrid library CCmax
T55 chain: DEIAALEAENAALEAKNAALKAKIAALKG

- interaction score (4H3172-bN): -0.909
- interaction score (4H3638-bN): -1.17
- interaction score (4H3277-bN): -1.75
- interaction score (4H3175-bN): -2.05
- interaction score (4H1985-bN): -2.05
- interaction score (4H584-bN): -1.72
- interaction score (4H3497-bN): -1.28
- interaction score (4H626-bN): -0.889
- interaction score (4H3298-bN): -0.626
- interaction score (4H591-bN): -0.871
- interaction score (4H3817-bN): -0.872
- interaction score (4H3613-bN): -1.86
- interaction score (4H3974-bN): -1.17
- interaction score (4H850-bN): -1.6
- interaction score (4H3162-bN): -1.41
- interaction score (4H619-bN): -1.93
- interaction score (4H3858-bN): -0.987
- interaction score (4H3631-bN): -1.53
- interaction score (4H3129-bN): -2.06
- interaction score (4H3628-bN): -1.17
- interaction score (4H906-bN): -1.03
- interaction score (4H3462-bN): -1.4
- interaction score (4H3414-bN): -1.17
- interaction score (4H3926-bN): -1.25
- interaction score (4H570-bN): -1.42
Binder: DENQQLKQKNQELKQEIQELEWEIQELEQ [4H1985-bN]

- interaction score (4H4038-bA): -0.541
Binder: DKNAQLKQKNAELKQEIAELEWKIAQLKQ [4H4038-bA]

- interaction score (4H3277-bN): -0.514
- interaction score (4H3175-bN): -0.427
- interaction score (4H3497-bN): -0.903
- interaction score (4H626-bN): -1.41
- interaction score (4H3298-bN): -0.102
- interaction score (4H591-bN): -1.33
- interaction score (4H3613-bN): -1.7
- interaction score (4H3162-bN): 0.979
- interaction score (4H3628-bN): -0.668
- interaction score (4H906-bN): -0.289
- interaction score (4H3462-bN): 0.241
- interaction score (O8-bN): -3.16
- interaction score (4H3926-bN): 0.163
Binder: DKNQQLEQEIQELKQENQELKWEIQELKQ [4H3162-bN]

- interaction score (4H3277-bN): -1.21
- interaction score (4H3175-bN): -0.0673
- interaction score (4H1985-bN): -0.785
- interaction score (4H717-bH): -0.282
- interaction score (4H3497-bN): -0.658
- interaction score (4H626-bN): -0.642
- interaction score (4H2697-bN): -1.18
- interaction score (4H3298-bN): -0.744
- interaction score (4H591-bN): -1.42
- interaction score (4H3817-bN): -0.969
- interaction score (4H3613-bN): 0.0619
- interaction score (4H3974-bN): -0.336
- interaction score (4H850-bN): -1.55
- interaction score (4H953-bA): -1.81
- interaction score (4H3162-bN): -0.75
- interaction score (4H1899-bN): -1.24
- interaction score (4H3858-bN): -0.633
- interaction score (4H3628-bN): 0.469
- interaction score (4H906-bN): -0.654
- interaction score (4H3462-bN): -2.27
- interaction score (4H3926-bN): -0.429
- interaction score (4H570-bN): -1
Binder: DENQQLKQKIQELKQKIQELKWENQELEQ [4H1899-bN]

- interaction score (4H457-bH): -1.91
- interaction score (4H4073-bH): 1.38
- interaction score (4H780-bH): -0.424
- interaction score (4H855-bH): -0.425
- interaction score (4H754-bH): -1.94
- interaction score (4H3427-bH): 1.18
- interaction score (4H346-bH): -0.309
- interaction score (4H683-bH): 0.431
- interaction score (4H3926-bH): -0.251
- interaction score (4H3112-bH): -0.225
- interaction score (4H2702-bH): 0.512
- interaction score (4H968-bH): 0.133
- interaction score (4H3010-bH): 0.547
- interaction score (4H2627-bH): 1.3
- interaction score (4H797-bH): -0.67
- interaction score (4H2673-bH): 0.273
- interaction score (4H953-bH): -1.4
- interaction score (4H918-bH): -0.493
- interaction score (4H575-bH): -0.0013
Binder: DKIQELKKEIEELKREIWELEKENQELER [4H2627-bH]

- interaction score (4H3961-bA): -1.16
- interaction score (4H470-bA): -1.37
- interaction score (4H4038-bA): -0.611
- interaction score (4H3907-bA): 0.8
- interaction score (4H607-bA): -0.806
Binder: DKNAQLKQKIAELKQEIAELEWENAQLEQ [4H3907-bA]

- interaction score (Q8-AA): -1.19
Binder: DEIAALEAENAALEAKNAALKAKIAALKG [Q8-AA]
